This is an account of results in US20130116146A1 (University of California, published 2013).

Non-standard residues stand in square brackets, D forms with d. Primed or numbered codes have the meaning given here. No end group written: not given here. Me3″ = trimethyl (trimethyl-lysine); Ahx = NCCCCCC(=O)O

The chains are these.
B1: 3BP1_HUMAN 616-625 peptide APTVPPPLPP (peptide)
peptide: APTVPPPLPP
modifications: not fully specified (N-terminus)
B2: RAPH1_HUMAN 811-820 peptide APPTPPPPPP (peptide)
peptide: APPTPPPPPP
modifications: not fully specified (N-terminus)
B3: 3BP2_HUMAN 201-210 peptide PPAYPPPPVP (peptide)
peptide: PPAYPPPPVP
modifications: not fully specified (N-terminus)
B4: RIN1_HUMAN 259-268 peptide PPAVPPPPVP (peptide)
peptide: PPAVPPPPVP
modifications: not fully specified (N-terminus)
B5: CPSF6_HUMAN 292-301 peptide LPPGPPPPVP (peptide)
peptide: LPPGPPPPVP
modifications: not fully specified (N-terminus)
B6: YLPM1_HUMAN 81-90 peptide LPPPPLPPPP (peptide)
peptide: [Ahx]LPPPPLPPPP
B7: WASL_HUMAN 370-379 peptide PVAPPPPPPP (peptide)
peptide: [Ahx]PVAPPPPPPP
B8: RAPH1_HUMAN 677-686 peptide SPPLPPPPPP (peptide)
peptide: SPPLPPPPPP
modifications: not fully specified (N-terminus)
B9: WASP_HUMAN 390-399 peptide GPPMPPPPPP (peptide)
peptide: [Ahx]GPPMPPPPPP
B10: CBLB_HUMAN 818-827 peptide PPSLPPPPPP (peptide)
peptide: PPSLPPPPPP
modifications: not fully specified (N-terminus)
B11: WASP2_HUMAN 394-403 peptide PPPPPPPGPP (peptide)
peptide: [Ahx]PPPPPPPGPP
notes: protein label as printed
B12: WASL_HUMAN 371-380 peptide VAPPPPPPPP (peptide)
peptide: [Ahx]VAPPPPPPPP
B13: WASL_HUMAN 354-363 peptide APSGPPPPPP (peptide)
peptide: [Ahx]APSGPPPPPP
B14: EVL_HUMAN 185-194 peptide PPPPPVPPPP (peptide)
peptide: PPPPPVPPPP
modifications: not fully specified (N-terminus)
B15: YLPM1_HUMAN 102-111 peptide PPPPPMPPPP (peptide)
peptide: [Ahx]PPPPPMPPPP
B16: WASL_HUMAN 283-292 peptide SRGGPPPPPP (peptide)
peptide: [Ahx]SRGGPPPPPP
B17: WASP_HUMAN 363-372 peptide GRGGPPPPPP (peptide)
peptide: [Ahx]GRGGPPPPPP
B18: ENAH_HUMAN 357-366 peptide PNQVPPPPPP (peptide)
peptide: PNQVPPPPPP
modifications: not fully specified (N-terminus)
B19: PDE4D_HUMAN peptide CPLQPPPPPP (peptide)
peptide: CPLQPPPPPP
modifications: not fully specified (N-terminus)
B20: WASL_HUMAN 369-378 peptide GPVAPPPPPP (peptide)
peptide: [Ahx]GPVAPPPPPP
B21: VASP2_HUMAN 165-174 peptide PPAGGPPPPP (peptide)
peptide: [Ahx]PPAGGPPPPP
notes: protein label as printed
B22: LATKAARKS, H3_DROME lysine site 27, trimethylated (peptide)
peptide: LATKAARK(Me3″)S
notes: also called H3K27me3; H3.3 27
B23: REIRRYQKS, H3_DROME lysine site 56, trimethylated (peptide)
peptide: REIRRYQK(Me3″)S
notes: also called H3.3 56
B24: GRIHRHLKS, H2AV_DROME lysine site 37, trimethylated (peptide)
peptide: GRIHRHLK(Me3″)S
notes: also called H2AZ 37
B25: DSGKAKAKA, H2AV_DROME lysine site 15, trimethylated (peptide)
peptide: DSGKAKAK(Me3″)A
notes: also called H2AV 15
B26: PRKQLATKA, H3_DROME lysine site 23, trimethylated (peptide)
peptide: PRKQLATK(Me3″)A
notes: also called H3.3 23
B27: GGAKRHRKV, H4_DROME lysine site 20, trimethylated (peptide)
peptide: GGAKRHRK(Me3″)V
notes: also called H4 20
B28: RIHRLLRKG, H2A_DROME lysine site 35, trimethylated (peptide)
peptide: RIHRLLRK(Me3″)G
notes: also called H2A1A 35
B29: ASKDLKVKR, H2AV_DROME lysine site 79, trimethylated (peptide)
peptide: ASKDLKVK(Me3″)R
notes: also called H2AZ, H2AV 79
B30: RTKQTARKS, H3_DROME lysine site 9, trimethylated (peptide)
peptide: RTKQTARK(Me3″)S
notes: also called H3.3 9
B31: EGTKAVTKY, H2B_DROME lysine site 117, trimethylated (peptide)
peptide: EGTKAVTK(Me3″)Y
notes: also called H2B1A 117
B32: IQAVLLPKK, H2A_DROME lysine site 117, trimethylated (peptide)
peptide: IQAVLLPK(Me3″)K
notes: also called H2A1 117
B33: MDVVYALKR, H4_DROME lysine site 91, trimethylated (peptide)
peptide: MDVVYALK(Me3″)R
notes: also called H4 91

The target in the first experiment is T1, GST-tagged Abl SH3 domain fusion protein (human, UniProt P00519 61-121, limits assumed).
T1 construct: domain: SH3 domain; also called GST-Abl SH3; Abl1 SH3 domain; not shown: GST tag
T1 sequence (P00519 61-121 limits assumed): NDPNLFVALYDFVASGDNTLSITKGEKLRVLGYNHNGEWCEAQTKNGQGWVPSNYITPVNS
The experiment is described as follows: peptide microarray, GST-Abl SH3 5 uM overlaid, peptide printed at 1 mg/ml, Cy3 fluorescence, triplicates. As for the experimental part: All peptides were synthesized by Sigma-Aldrich. The peptides were printed onto glass slides in triplicates by ArrayIt Corporation. A buffer blank and a Cy3 marker were also printed in triplicates. The peptide arrays were blocked with the blocking buffer (5% non-fat dry milk, TBS pH8.0, 0.05% Tween 20) for an hour at room temperature. Next, the peptide arrays were incubated overnight at 4° C. with purified GST-Abl SH3 in the blocking buffer at a final concentration of 5 μM. After washing three times for ten minutes with the TBST buffer (TBS pH8.0, 0.05% Tween 20), an anti-GST antibody (Santa Cruz Biotechnology) was added to a final concentration of 0.2 μg/ml in the blocking buffer for one hour at room temperature. The arrays were then washed three times for ten minutes with the TBST buffer. Finally, the arrays were incubated with the secondary antibody, Cy3-conjugated goat-anti-mouse IgG (H+L) (Jackson ImmunoResearch), for one hour at room temperature, followed by washing for three times for ten minutes with the TBST buffer. As a control, the peptide array was incubated with the anti-GST and the secondary antibodies alone.
To analyze the microarray data, the spots that were flagged as noisy were first removed. For the high (1 mg/ml) and low (0.5 mg/ml) printing concentrations, 724 and 767 (out of 800) spots remained for later analyses, respectively. Next, the statistical cut-off was determined for the significant fluorescence signal by modeling the background intensity distribution using a Gamma distribution (FIG. 4). The spots were binned based on the fluorescence intensity. To have a better curve fitting, the long tail of the histogram that represented strong binding peptides was removed and only the bins with intensity less than 900 and 1500 for the high and low concentrations, respectively, were kept. The model fitting and p-value calculation were conducted using R and P-value of 0.05 was used as the cutoff.
Consider B1, for which the “Average fluorescence intensity (high printing concentration)” value (“Average fluorescence intensity” for short) amounted to 45100.

Consider B2, for which the “Average fluorescence intensity” value amounted to 54400.

On to B3, for which the “Average fluorescence intensity” value amounted to 29700.

With B4, the “Average fluorescence intensity” value worked out at 42600.

For the molecule B5, the “Average fluorescence intensity” value was determined as 1900.

Take B6: the “Average fluorescence intensity” value turned out to be 595.

In the case of B7, the “Average fluorescence intensity” value stood at 48800.

As for B8, the “Average fluorescence intensity” value came out at 17500.

With B9, the “Average fluorescence intensity” value was found to be 23400.

For the molecule B10, the “Average fluorescence intensity” value came to 35000.

Consider B11, for which the “Average fluorescence intensity” value was 2380.

For B12, the “Average fluorescence intensity” value stood at 914.

As to B13, the “Average fluorescence intensity” value was determined as 52300.

Turning to B14, the “Average fluorescence intensity” value was determined as 4680.

Consider B15, for which the “Average fluorescence intensity” value is 22800.

Take B16: the “Average fluorescence intensity” value was 744.

With B17, the “Average fluorescence intensity” value was found to be 1300.

As to B18, the “Average fluorescence intensity” value turned out to be 58000.

As for B19, the “Average fluorescence intensity” value is 840.

As to B20, the “Average fluorescence intensity” value amounted to 45000.

As to B21, the “Average fluorescence intensity” value was 26200.

The next experiment addresses T2, Polycomb protein chromodomain (a.a. 1-90), GST-tagged fusion protein (Drosophila melanogaster, UniProt P26017 1-90).
T2 construct: range 1-90; also called Polycomb-GST fusion protein; Polycomb chromodomain; not shown: GST tag
T2 sequence (looked up): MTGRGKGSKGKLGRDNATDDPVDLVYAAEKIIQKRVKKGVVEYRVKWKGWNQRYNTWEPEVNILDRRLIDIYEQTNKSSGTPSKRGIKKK
The experiment in a line: peptide microarray, GST-Polycomb chromodomain overlaid on trimethylated peptides, p<0.001 in at least two of three spots. An excerpt: There are a total of 46 histone peptide sequences (9 a.a. long) with a single lysine-trimethylation site which are conserved between the human and fruit fly H2, H3 and H4 proteins (Table II). These were screened for Polycomb protein chromodomain binding by peptide microarray. Each peptide sequence was screened as triplets, and the fluorescence intensity was quantified with background subtraction individually for each spot from the microarray images by ImageJ⁹ and the whole data set was fit to a mixed Gaussian distribution model (FIG. 8, Table III).
The peptide microarray was rinsed with TBST buffer (25 mM Tris, 125 mM NaCl, 0.05% Tween-20, pH 8) followed by blocking with 5% non-fat milk in TBST (room temperature 1 hour or 4° C. overnight). The slide was then incubated at 4° C. with Polycomb-GST fusion protein at a final concentration of […] in 5% non-fat milk/TBST for 6 hours. After washing three times for 10 minutes each with TBST, the slide was incubated with an anti-GST mouse monoclonal IgG antibody (Thermo) at a final concentration of 1 μg/mL in 5% non-fat milk/TBST and shaken gently for 1 hour at room temperature. […] The slide was shaken for 1 hr at room temperature and washed three times with TBST.
As for B22, the binding result is reported as “binds”.

For B23, the binding result was “binds”.

Consider B24, for which the binding result was “binds”.

As for B25, the binding result is reported as “binds”.

As to B26, the binding result was “binds”.

In the case of B27, the binding result was “binds”.

B28: the binding result is listed as “binds”.

Turning to B29, the binding result is listed as “binds”.

Regarding B30, the binding result was “binds”.

On to B31, for which the binding result is on record as “binds”.

B32: the binding result is recorded as “binds”.

As to B33, the binding result is recorded as “binds”.
